Like-named read-outs stand apart in the source and are kept apart here.
Legend:
[1] = molecular target: T1, recombinant 50 kD C-terminal BoNT/A domain (HC50A) (Clostridium botulinum, UniProt P0DPI1 861-1296); test: KinExA Direct Kinetics method, […]; KinExA, solution phase
[2] = molecular target: T1, recombinant 50 kD C-terminal BoNT/A …
[3] = molecular target: T1, recombinant 50 kD C-terminal BoNT/A …; test: SPR (Biacore 3000), 13A immobilized on CM5 chip, HC50A as analyte
[4] = molecular target: T1, recombinant 50 kD C-terminal BoNT/A …; test: KinExA, solution phase

B1: botulinum neurotoxin 13A antibody (human monoclonal antibody produced by hybridoma 13A, ATCC PTA-8871) (antibody, V domains shown)
VH: EVQLVESGGGLVQPGRSLRLSCTASGFTFGDSAMSWVRQAPGKGLEWVGFIRGKPYGGKPEYAASVKGRFTISRDDSKSIAYLQMNSLKTEDTAVYYCTAGMTTVTIYDYWGQGTLVTVSS
VL: QPLSVSVALGQTAGITCEGNNIGSKNVHWYQQKPGQAPVLVIYRDSNRPSGIPERFSGFNSGNTATLTISRVQAGDEADYYCQVWDSSTGVFGGGTELTVLG
How did the kon [1] turn out when B1 was run?
Its kon is 7.2e+06 M⁻¹ s⁻¹.

What about the Kd [2] of the same binder?
Its Kd is 52 pM.

What about the kon [3] of the same binder?
The kon was 1.7e+07 M⁻¹ s⁻¹.

What about the Kd [4] of the same binder?
Its Kd is 97 pM.

Reference: US20110008344A1 (THOMAS JEFFERSON UNIVERSITY, published 2011)
